The assay concerns the target T1, recombinant human coronavirus SARS-CoV-2 Spike Glycoprotein RBD, isolate Wuhan-Hu-1 (Abcam), with C-terminal … (SARS-CoV-2, isolate Wuhan-Hu-1, UniProt P0DTC2 319-541).
T1 construct: also called SARS-COV2 spike protein; COVID-19 spike protein
Description: ELISA, RBD coated, anti-c-Myc-HRP detection.

B1: SARS-CoV-2 VHH-cMYC-12xHis-tag (VH ab8) expressed by E. coli WK6 cells from the pHENC6-VHH plasmid (VHH)
VHH: EVQLVESGGGLVQPGGSLRLSCAASGFTFDDYAMSWVRQAPGKGLEWIGRMYNNGRTSYNPSLKSLVTISRDNSKNTLYLQMNSLRAEDTATYYCARDNLGYRPSENLYGMDVWGQGTTVTVSS
notes: also called bacteria-derived VHH antibody; pHENC6-VHH-c-Myc-12xHis-tag
For B1, the binding result is “binds”.

B2: SARS-CoV-2 VHH-cMYC-12xHis-tag (VH ab8) expressed by EXPI293F mammalian cells from pCDNA 3.4 VHH (VHH)
VHH: EVQLVESGGGLVQPGGSLRLSCAASGFTFDDYAMSWVRQAPGKGLEWIGRMYNNGRTSYNPSLKSLVTISRDNSKNTLYLQMNSLRAEDTATYYCARDNLGYRPSENLYGMDVWGQGTTVTVSS
notes: also called VHH antibodies obtained in mammalian cells; pCDNA 3.4 VHH-c-Myc-12xHis-tag
Consider B2, for which the binding result is “binds”.

(Values after patent publication US20240401070A1 (RUTGERS THE STATE UNIVERSITY OF NEW JERSEY, published 2024).)
